Assay [1] has as its target T1, human-cynomolgus monkey chimeric CD147 hCD147-mu3, on CHO-K1 cells (human, UniProt P35613 140-385).
T1 construct: also called hCD147-mu3_pcDNA3.1; CD147 with mu3 mutation
T1 chain: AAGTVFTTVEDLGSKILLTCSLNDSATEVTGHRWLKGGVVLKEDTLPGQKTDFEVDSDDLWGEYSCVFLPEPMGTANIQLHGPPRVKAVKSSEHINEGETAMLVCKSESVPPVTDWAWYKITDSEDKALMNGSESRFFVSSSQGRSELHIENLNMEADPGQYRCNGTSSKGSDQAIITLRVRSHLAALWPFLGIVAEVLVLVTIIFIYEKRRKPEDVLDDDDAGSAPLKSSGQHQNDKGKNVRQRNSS
Description: flow cytometry, transfected CHO-K1 cells. (In general: A flow cytometer gives signals particle by particle.)
Description: Samples with an increase in fluorescence signals of 10 times or more as compared with those in the control cells that were not treated with primary antibodies were determined to be binding positive (+). Samples with a partial increase in fluorescence signals of less than 10 times were determined to be binding slightly positive (±). Samples with no increase in fluorescence signals as compared with those in the control cells that were not treated with primary antibodies were determined to be binding negative (−).

Assay [2] addresses T2, human CD147 variant 2 expressed on CHO-K1 cells (pcDNA-DEST40-CD147v2) (human, UniProt P35613 140-385).
T2 construct: also called CHO-K1-hCD147v2; human CD147 expressing CHO-K1 cells
T2 sequence: T1 chain with T45A, D52E, E54K, L60Q
Description: flow cytometry, CHO-K1 cells transfected with human CD147v2, antibody 10 µg/ml, anti-mouse IgG-FITC (Example 1)-8).
Description: In the graphs, the vertical axis represents the number of cells, and the horizontal axis represents the intensity of fluorescence signals.

These results are taken from US20200362033A1 (Daiichi Sankyo, published 2020).

Where a chain is given by its changes, count along the chain named.

B1: 2P10F2 (antibody, V domains shown)
VH: EVQLQESGPGLVKPSQSLSLTCSVTGYSITSNYWGWIRKFPGNKMEWMGCITYSGGTSYNPSLKSRISITRDTSKNQFFLQLNSVTTEDTATYYCASSYTSGDVDYWGQGVMVTVSS
VL: DIQMTQSPASLSASLGETVSIECLASEGISNSLAWYQQKPGKSPQLLIYGASSLQDGVPSRFSGSGSGTQYSLKISGMQPEDEGVYYCQQGYKYPFTFGSGTKLEIKR
notes: also called 2P10F2 rat antibody
Consider B1, for which, in assay [1], the binding result was “no binding (tested: 10 µg/ml)”.

B2: LN22R8 (antibody, V domains shown)
VH: QIQLVQSGPELKKPGETVKISCKASGYTFTNYGMNWVKQAPGKGLKWMGWINTYTGEPTYADDFKGRFAFSLETSASTAYLQINNLKNEDTATYFCARGGYGNYGAGAMDYWGQGTSVTVSS
VL: DIQMTQSPSSLSASLGERVSLTCRASLEISGFLSWLQQKPDGTIKRLIYAASILDSGVPKRFSGSRSGSDYSLTISSLESEDFADYYCLQYASYPWTFGGGTKLEIKR
notes: also called mouse anti-human CD147 antibody (LN22R8)
With B2, the binding result in assay [2] is reported as “binds”; in assay [1] it was “no binding (tested: 10 µg/ml)”.
